Results reported in patent US20240092930A1.

Tests used:
[1] = target: human Trop-2 on the surface of cells (CHO/Trop-2 cells; BxPC-3 cells; NCI-N87 cells) (human) (UniProt P09758); experiment: cell-based or functional assay
[2] = target: human Trop-2 on the surface of cells (CHO/Trop-2 cells; BxPC-3 cells; NCI-N87 cells) (human) (UniProt P09758); experiment: FACS, BxPC cells, antibody left on the surface after 3 h at 37° C.
[3] = target: human Trop-2 on the surface of cells (CHO/Trop-2 cells; BxPC-3 cells; NCI-N87 cells) (human) (UniProt P09758); experiment: FACS, BxPC cells, antibody left on the surface, control kept at 4° C.

human Trop-2 on the surface of cells (CHO/Trop-2 cells; BxPC-3 cells; NCI-N87 cells) (human), sequence (P09758 27-323): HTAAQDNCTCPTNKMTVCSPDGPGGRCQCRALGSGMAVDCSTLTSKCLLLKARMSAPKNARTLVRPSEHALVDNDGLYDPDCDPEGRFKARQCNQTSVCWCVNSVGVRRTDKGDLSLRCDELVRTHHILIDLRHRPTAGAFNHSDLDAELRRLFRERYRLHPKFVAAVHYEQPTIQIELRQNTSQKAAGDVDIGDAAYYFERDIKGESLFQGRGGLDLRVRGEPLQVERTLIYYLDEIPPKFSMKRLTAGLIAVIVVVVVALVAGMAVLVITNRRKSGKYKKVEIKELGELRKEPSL

- Internalization percentage (%), 3 h, BxPC cells, FACS [1]: 3.29%
- Internalization percentage, 1 h, BXPC-3 cells, FACS [1]: -63%
- Internalization percentage, 1 h, NCI-N87 cells, FACS [1]: -95%
- Fluorescence intensity (MFI), 37° C. [2]: 715 MFI
- Fluorescence intensity (MFI), 4° C. [3]: 739 MFI
Substance: IgG1 isotype control antibody NC-IgG1
